Reference: publication doi:10.1101/419911

How the values were obtained:
AP2M1 160-435 = AP2M1 160-435 (UniProt Q96CW1); test: isothermal titration calorimetry; conditions: reference: unphosphorylated peptide YMPMS; sites S616
[1] = target: AP2M1 (residues 160-435) (human) (UniProt Q96CW1); test: ITC

UniProt Q96CW1, sequence (Q96CW1 160-435): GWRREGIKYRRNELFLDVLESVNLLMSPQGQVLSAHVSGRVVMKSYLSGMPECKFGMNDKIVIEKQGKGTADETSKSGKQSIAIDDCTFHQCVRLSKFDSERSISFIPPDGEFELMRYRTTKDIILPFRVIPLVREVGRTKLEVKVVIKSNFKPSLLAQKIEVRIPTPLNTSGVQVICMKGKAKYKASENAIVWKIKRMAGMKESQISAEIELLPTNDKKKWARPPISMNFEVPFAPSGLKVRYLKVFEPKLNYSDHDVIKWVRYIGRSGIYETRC

| KD (AP2M1 160-435) | Kd [1] [nM] | Substance |
| --- | --- | --- |
| stronger; reference 2.03 µM | – | IRS1 607-620 (from UniProt P35568) YMPMpS peptide (pS-IRS1) |
| – | 2030 | IRS1 peptide YMPMS (unphosphorylated) |
| – | 280 | IRS1 peptide YMPMpS (phospho-S616), pS-IRS1 |
